T1: APBA2_1, Q99767
T1 sequence (Q99767 563-664, limits assumed, looked up): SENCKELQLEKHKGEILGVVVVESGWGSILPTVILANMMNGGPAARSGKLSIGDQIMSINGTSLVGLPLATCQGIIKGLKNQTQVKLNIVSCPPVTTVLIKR

T2: DFNB31_1, Q9P202
T2 sequence (Q9P202 135-233, limits assumed, looked up): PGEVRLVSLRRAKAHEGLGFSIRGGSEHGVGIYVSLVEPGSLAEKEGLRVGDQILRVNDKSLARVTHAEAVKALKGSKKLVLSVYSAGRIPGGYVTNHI

T3: DVL3, Q92997
T3 sequence (Q92997 244-331, limits assumed, looked up): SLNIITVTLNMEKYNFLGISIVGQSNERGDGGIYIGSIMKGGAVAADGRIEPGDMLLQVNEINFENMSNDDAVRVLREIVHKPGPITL

T4: GRIP1_2, Q9Y3R0
T4 sequence (Q9Y3R0 145-248, limits assumed, looked up): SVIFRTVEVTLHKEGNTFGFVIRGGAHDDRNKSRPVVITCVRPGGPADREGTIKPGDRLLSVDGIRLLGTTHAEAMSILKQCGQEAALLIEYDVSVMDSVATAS

T5: GRIP1_3, Q9Y3R0
T5 sequence (Q9Y3R0 247-346, limits assumed, looked up): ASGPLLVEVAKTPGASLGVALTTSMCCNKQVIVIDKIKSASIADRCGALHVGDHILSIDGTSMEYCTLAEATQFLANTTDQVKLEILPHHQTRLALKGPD

T6: LRRC7, Q96NW7
T6 sequence (Q96NW7 1440-1537, limits assumed, looked up): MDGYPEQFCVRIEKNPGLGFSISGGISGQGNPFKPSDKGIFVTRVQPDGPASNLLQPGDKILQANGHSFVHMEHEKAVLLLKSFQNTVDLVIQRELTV

T7: MPDZ_12, O75970
T7 sequence (O75970 1857-1958, limits assumed, looked up): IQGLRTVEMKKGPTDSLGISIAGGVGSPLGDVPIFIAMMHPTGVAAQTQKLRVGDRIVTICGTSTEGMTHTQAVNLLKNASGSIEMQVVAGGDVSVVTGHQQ

T8: PDZRN3_1, Q9UPQ7
T8 sequence (Q9UPQ7 244-349, limits assumed, looked up): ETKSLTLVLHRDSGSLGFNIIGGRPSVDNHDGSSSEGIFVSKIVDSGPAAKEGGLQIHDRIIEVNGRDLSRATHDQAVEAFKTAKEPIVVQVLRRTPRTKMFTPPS

T9: RADIL, Q96JH8
T9 sequence (Q96JH8 971-1071, limits assumed, looked up): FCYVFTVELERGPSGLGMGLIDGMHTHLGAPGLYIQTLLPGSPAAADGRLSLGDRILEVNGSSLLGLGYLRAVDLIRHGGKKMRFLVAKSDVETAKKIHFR

T10: RHPN1, Q8TCX5
T10 sequence (Q8TCX5 508-602, limits assumed, looked up): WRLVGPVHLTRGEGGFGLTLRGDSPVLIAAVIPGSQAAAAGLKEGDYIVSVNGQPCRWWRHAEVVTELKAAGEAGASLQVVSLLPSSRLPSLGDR

T11: SNTB1, Q13884
T11 sequence (Q13884 107-205, limits assumed, looked up): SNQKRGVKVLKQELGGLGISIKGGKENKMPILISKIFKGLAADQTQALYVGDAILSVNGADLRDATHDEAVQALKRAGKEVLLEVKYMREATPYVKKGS

T12: SNTG2, Q9NY99
T12 sequence (Q9NY99 68-166, limits assumed, looked up): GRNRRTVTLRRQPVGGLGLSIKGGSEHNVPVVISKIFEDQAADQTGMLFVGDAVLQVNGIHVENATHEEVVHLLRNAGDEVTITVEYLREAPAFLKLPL


Key:
Assay in all cases: holdup assay
Set-up in all cases: key: below the threshold = too weak to quantify, mostly under pKd 3.1 to 4
Conditions in all cases: plain residues with an end cap or a label only (N-terminal biotin on a linker: ado-ado)
AHNAK1, Q09666 = biological target: AHNAK1, Q09666
Sequence of AHNAK1, Q09666 (Q09666 4-100): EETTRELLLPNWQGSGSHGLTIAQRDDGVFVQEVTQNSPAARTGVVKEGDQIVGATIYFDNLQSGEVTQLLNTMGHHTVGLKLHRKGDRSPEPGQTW

APBA2_1, Q99767 = biological target: T1, APBA2_1, Q99767
ARHGEF12, Q9NZN5-2 = biological target: ARHGEF12, Q9NZN5-2
Sequence of ARHGEF12, Q9NZN5-2 (Q9NZN5 other isoform, or with tags, fused parts or gaps): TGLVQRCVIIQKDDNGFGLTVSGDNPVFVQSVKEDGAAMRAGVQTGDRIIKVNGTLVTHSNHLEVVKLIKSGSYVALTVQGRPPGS

DFNB31_1, Q9P202 = biological target: T2, DFNB31_1, Q9P202
DLG1_2, Q12959 = biological target: DLG1_2, Q12959
Sequence of DLG1_2, Q12959 (Q12959 314-412): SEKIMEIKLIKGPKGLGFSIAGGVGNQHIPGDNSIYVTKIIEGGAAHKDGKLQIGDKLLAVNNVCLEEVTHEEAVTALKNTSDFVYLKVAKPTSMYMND

DLG2_3, Q15700 = biological target: DLG2_3, Q15700
DLG4_3, P78352 = biological target: DLG4_3, P78352
Sequence of DLG4_3, P78352 (P78352 306-403): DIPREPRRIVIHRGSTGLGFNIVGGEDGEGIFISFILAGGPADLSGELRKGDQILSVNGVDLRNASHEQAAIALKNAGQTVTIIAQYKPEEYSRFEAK

DVL3, Q92997 = biological target: T3, DVL3, Q92997
GRIP1_2, Q9Y3R0 = biological target: T4, GRIP1_2, Q9Y3R0
GRIP1_3, Q9Y3R0 = biological target: T5, GRIP1_3, Q9Y3R0
Inadl_10, Q8NI35 = biological target: Inadl_10, Q8NI35
Sequence of Inadl_10, Q8NI35 (Q8NI35 1673-1763): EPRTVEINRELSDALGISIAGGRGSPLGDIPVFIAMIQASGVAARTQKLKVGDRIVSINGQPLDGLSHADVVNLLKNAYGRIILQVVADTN

Inadl_4, Q8NI35 = biological target: Inadl_4, Q8NI35
Sequence of Inadl_4, Q8NI35 (Q8NI35 547-651): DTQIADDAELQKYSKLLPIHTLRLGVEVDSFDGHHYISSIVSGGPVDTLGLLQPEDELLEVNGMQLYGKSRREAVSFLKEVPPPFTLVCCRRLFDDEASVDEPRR

LRRC7, Q96NW7 = biological target: T6, LRRC7, Q96NW7
MAGI2_3, Q86UL8 = biological target: MAGI2_3, Q86UL8
Sequence of MAGI2_3, Q86UL8 (Q86UL8 600-682): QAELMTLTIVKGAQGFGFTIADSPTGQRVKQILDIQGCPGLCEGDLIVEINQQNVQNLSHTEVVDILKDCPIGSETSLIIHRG

MAGI2_5, Q86UL8 = biological target: MAGI2_5, Q86UL8
Sequence of MAGI2_5, Q86UL8 (Q86UL8 915-1017): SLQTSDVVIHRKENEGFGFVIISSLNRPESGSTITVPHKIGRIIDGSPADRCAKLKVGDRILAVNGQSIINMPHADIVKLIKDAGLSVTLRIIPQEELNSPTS

MPDZ_12, O75970 = biological target: T7, MPDZ_12, O75970
NHERF4_2, Q86UT5 = biological target: NHERF4_2, Q86UT5
Sequence of NHERF4_2, Q86UT5 (Q86UT5 220-308): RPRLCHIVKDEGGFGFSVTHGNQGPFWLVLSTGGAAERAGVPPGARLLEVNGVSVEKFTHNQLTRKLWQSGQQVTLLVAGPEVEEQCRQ

PARD3_3, Q8TEW0 = biological target: PARD3_3, Q8TEW0
Sequence of PARD3_3, Q8TEW0 (Q8TEW0 582-685): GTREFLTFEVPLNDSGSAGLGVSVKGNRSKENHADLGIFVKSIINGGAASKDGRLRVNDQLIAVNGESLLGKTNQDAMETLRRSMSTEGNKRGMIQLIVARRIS

PDZRN3_1, Q9UPQ7 = biological target: T8, PDZRN3_1, Q9UPQ7
RADIL, Q96JH8 = biological target: T9, RADIL, Q96JH8
RHPN1, Q8TCX5 = biological target: T10, RHPN1, Q8TCX5
SCRIB_1, Q14160 = biological target: SCRIB_1, Q14160
Sequence of SCRIB_1, Q14160 (Q14160 718-814): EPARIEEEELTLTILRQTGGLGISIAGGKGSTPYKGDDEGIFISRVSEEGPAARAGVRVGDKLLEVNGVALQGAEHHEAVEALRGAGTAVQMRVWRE

SCRIB_3, Q14160 = biological target: SCRIB_3, Q14160
Sequence of SCRIB_3, Q14160 (Q14160 999-1103): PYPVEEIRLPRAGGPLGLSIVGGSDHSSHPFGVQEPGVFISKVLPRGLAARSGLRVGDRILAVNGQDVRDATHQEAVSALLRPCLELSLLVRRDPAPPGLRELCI

SNTB1, Q13884 = biological target: T11, SNTB1, Q13884
SNTG2, Q9NY99 = biological target: T12, SNTG2, Q9NY99

Row | Binder | pKd (AHNAK1, Q09666) | pKd (APBA2_1, Q99767) | pKd (ARHGEF12, Q9NZN5-2) | pKd (DFNB31_1, Q9P202) | pKd (DLG1_2, Q12959) | pKd (DLG2_3, Q15700) | pKd (DLG4_3, P78352) | pKd (DVL3, Q92997) | pKd (GRIP1_2, Q9Y3R0) | pKd (GRIP1_3, Q9Y3R0) | pKd (Inadl_10, Q8NI35) | pKd (Inadl_4, Q8NI35) | pKd (LRRC7, Q96NW7) | pKd (MAGI2_3, Q86UL8) | pKd (MAGI2_5, Q86UL8) | pKd (MPDZ_12, O75970) | pKd (NHERF4_2, Q86UT5) | pKd (PARD3_3, Q8TEW0) | pKd (PDZRN3_1, Q9UPQ7) | pKd (RADIL, Q96JH8) | further results
1 | HYPASPDSWV [CTNND2, Q9UQB3] | below the threshold | below the threshold | below the threshold | 4.34 | 4.65 | below the threshold | below the threshold | 4.04 | below the threshold | below the threshold | 3.53 | below the threshold | 4.97 | 3.58 | below the threshold | 4.65 | 3.55 | 3.92 | 3.83 | 5.02 | pKd (RHPN1, Q8TCX5): 4.42; pKd (SCRIB_1, Q14160): 4.06; pKd (SCRIB_3, Q14160): 4.4; pKd (SNTB1, Q13884): 4.23; pKd (SNTG2, Q9NY99): 3.72
2 | LPPPESESKV [KCNJ9, Q92806] | below the threshold | below the threshold | below the threshold | 4.01 | 3.54 | 3.7 | below the threshold | below the threshold | below the threshold | below the threshold | below the threshold | below the threshold | below the threshold | 3.64 | below the threshold | below the threshold | below the threshold | below the threshold | below the threshold | below the threshold | pKd (RHPN1, Q8TCX5): 4.44; pKd (SCRIB_1, Q14160): below the threshold; pKd (SCRIB_3, Q14160): below the threshold; pKd (SNTB1, Q13884): 4.32; pKd (SNTG2, Q9NY99): 3.74
3 | SSSVNVSSNL [CXCR1, P25024] | below the threshold | below the threshold | 4.24 | 3.56 | below the threshold | below the threshold | below the threshold | below the threshold | below the threshold | below the threshold | below the threshold | below the threshold | below the threshold | 3.5 | below the threshold | below the threshold | below the threshold | below the threshold | below the threshold | below the threshold | pKd (RHPN1, Q8TCX5): 3.67; pKd (SCRIB_1, Q14160): below the threshold; pKd (SCRIB_3, Q14160): 4.02; pKd (SNTB1, Q13884): below the threshold; pKd (SNTG2, Q9NY99): below the threshold
4 | HLSTRQGTCV [ATRNL1, Q5VV63] | below the threshold | below the threshold | 3.51 | 3.51 | 4.55 | 4.19 | 3.87 | below the threshold | below the threshold | below the threshold | below the threshold | below the threshold | 3.63 | below the threshold | 4.04 | 3.67 | below the threshold | below the threshold | 3.97 | 4.28 | pKd (RHPN1, Q8TCX5): 3.65; pKd (SCRIB_1, Q14160): 3.66; pKd (SCRIB_3, Q14160): 4.13; pKd (SNTB1, Q13884): 3.99; pKd (SNTG2, Q9NY99): 3.67

Now from value to binder, other results behind:

Row | pKd (AHNAK1, Q09666) | pKd (APBA2_1, Q99767) | pKd (ARHGEF12, Q9NZN5-2) | pKd (DFNB31_1, Q9P202) | pKd (DLG1_2, Q12959) | pKd (DLG2_3, Q15700) | pKd (DLG4_3, P78352) | pKd (DVL3, Q92997) | pKd (GRIP1_2, Q9Y3R0) | pKd (GRIP1_3, Q9Y3R0) | pKd (Inadl_10, Q8NI35) | pKd (Inadl_4, Q8NI35) | pKd (LRRC7, Q96NW7) | pKd (MAGI2_3, Q86UL8) | pKd (MAGI2_5, Q86UL8) | pKd (MPDZ_12, O75970) | pKd (NHERF4_2, Q86UT5) | pKd (PARD3_3, Q8TEW0) | pKd (PDZRN3_1, Q9UPQ7) | pKd (RADIL, Q96JH8) | Binder | further results
5 | below the threshold | below the threshold | 3.61 | 3.84 | below the threshold | below the threshold | below the threshold | below the threshold | 3.63 | below the threshold | below the threshold | below the threshold | below the threshold | 3.59 | 4.4 | below the threshold | below the threshold | 4.33 | 3.83 | 3.99 | LLQEEWETVM [PTH1R, Q03431] | pKd (RHPN1, Q8TCX5): 4.41; pKd (SCRIB_1, Q14160): 3.62; pKd (SCRIB_3, Q14160): 4.64; pKd (SNTB1, Q13884): 4.24; pKd (SNTG2, Q9NY99): 3.95
6 | below the threshold | below the threshold | below the threshold | 4.01 | below the threshold | 3.7 | below the threshold | below the threshold | below the threshold | below the threshold | below the threshold | below the threshold | below the threshold | below the threshold | 4.1 | below the threshold | below the threshold | below the threshold | below the threshold | below the threshold | NNMAFETTHF [SLC5A12, Q1EHB4] | pKd (RHPN1, Q8TCX5): 4.08; pKd (SCRIB_1, Q14160): 4.14; pKd (SCRIB_3, Q14160): 4.02; pKd (SNTB1, Q13884): below the threshold; pKd (SNTG2, Q9NY99): below the threshold
